Laboratory results: patent publication US11897928B2, “Conjugates for delivering an anti-cancer agent to nerve cells, methods of use and methods of making thereof” (Manzanita Pharmaceuticals, Inc., priority 2018, dated 2024)

Legend:
TrkB receptor = assay: Bioassay in RGC cultures for TrkB receptor binding; assay type: cell-based
[1] = Intracisternal delivery of 800-rhBDNF in naïve rats (Spectralis IRAF/IR imaging, NIR microscopy and HE histopathology); assay type: in vivo
Protocol: A Dyomics Near InfraRed (NIR) dye 800 was conjugated to rhBDNF (800-rhBDNF) as set forth above. […] Three single doses of 800-rhBDNF were injected midline intracisternally in naïve rats (n=4; n=3 800-rhBDNF, n=1 control, unmodified dye 800 carboxylic acid form). Three test doses of 800-rhBDNF were selected: lowest (5 μL for syringe, at 0.20 concentration=1 μg study article), mid-, and highest (30 μL; upper volume constraint is 50 μL). Images at three timepoints were collected, just prior to treatment, 15 min, and 6 h using two imaging modalities in both eyes (left eye, oculus sinister, OS; right eye, oculus dexter, OD). Imaging and histopathology methods were used to detect 800-rhBDNF in the optic chiasm or optic nerve head.
Two seetings were selected on the Heidelberg Spectralis®. Infrared autofluorescence IRAF; or ICG, to detect indocyanine green, an NIR dye uses a diode laser with a wavelength of 790 nm in the NIR spectrum. A barrier filter at 830 nm separates excitation and fluorescence light and thus, IRAF/ICG detects near IR fluorescence in 800-rhBDNF. […] After dissection, tissues were cryostatted to preserve NIR 800. Two directly contiguous sets of slides were produced from two sections of optic nerve, optic chiasm from brain tissue, and optic nerve head from eyes. HE stain.
Hematoxylin and eosin (HE) stain was applied to one slide set to reveal nerve tissue. NIR microscopy. Using an Olympus IX73 inverted 2-deck microscope with motorized filter cube turret; objective turret; Proscan XYZ stage; a 75 W Xenon burner; and DP80 Dual CCD 12.7 MP camera, NIR images are acquired in two channels at 4× in the FITC channel (detects auto-fluorescence) and ICG channel. The morphology of HE stained slides to those with FITC+NIR images was compared to confirm that NIR 800 had localized to in nerve tissue.

B1: 800-rhBDNF: Dyomics Near InfraRed (NIR) dye 800 conjugated to rhBDNF (conjugate, UniProt P23560 19-247, looked up)
Neurotrophic factor BDNF …: APMKEANIRGQGGLAYPGVRTHGTLESVNGPKAGSRGLTSLADTFEHVIEELLDEDQKVRPNEENNKDADLYTSRVMLSSQVPLEPPLLFLLEEYKNYLDAANMSMRVRRHSDPARRGELSVCDSISEWVTAADKKTAVDMSGGTVTVLEKVPVSKGQLKQYFYETKCNPMGYTKEGCRGIDKRHWNSQCRTTQSYVRALTMDSKKRIGWRFIRIDTSCVCTLTIKRGR
modifications: Dyomics 800 NIR dye
notes: Dyomics Near InfraRed (NIR) dye 800 conjugated to rhBDNF
With B1 the “TrkB receptor binding following synthesis” value (TrkB receptor) was “TrkB receptor binding remains intact”, the “localized irritation in the retinas” value ([1]; intracisternal injection, live imaging at baseline, 15 min and 6 h) was “No localized irritation in the retinas was observed” and the “distribution of midline injection (both eyes)” value ([1]; midline intracisternal injection, imaging in OS and OD) was “distributed bilaterally”. For the same molecule, the “transport of 800 dye from the site of injection” value ([1]; preliminary studies, given intracisternally) was “transports 800 dye away from the site of injection, via the optic chiasm, to the optic nerve head” and the “localization of NIR 800 dye in nerve tissue (morphology of NIR microscopy compared to HE stain)” value ([1]; single midline intracisternal injection, histopathology after euthanasia at 6 h, optic chiasm and optic nerve head) was “localizes the 800 dye and moves the 800 dye away from the injection site via optic chiasm to optic nerve head”.
